Data on one protein can be found in PMC10607449, “Structural Characterization of an N-Acetyl Sugar Amidotransferase Involved in the Lipopolysaccharide Biosynthesis in Bacteria” (International Journal of Molecular Sciences, 2023).

The data set deals with the molecule itself. In words: SEC. (In general: In gel filtration, larger molecules generally elute earlier.)

B1: N-acetyl sugar amidotransferase from Legionella pneumophila (enzyme)
chain: MSNARIGIDMSKIYAPKSIDLSSFQLPDEKLQTKYGLPHKVEFCKSCVISNQRPNSAVEYEHKKESKKHTIHFDDEGICDACRVAERKKSTINWEERDRQLRELCDRFRSKDGSYDCVVPGSGGKDSFYAAHILKYKYGMNPLTVTWAPHMYTPWGWRNFQSWIHAGFDNHLFTPNGRVHRLLTRLAVENLFHPFQPFMIGQKAYAPKMALLHKIKLVVYGENEAEYGNPIGDTESAKRDWKYFTADDKSKIFLGGTSVQELKSDFGLNDNDLDAYLPADPQQIEEQQVEVHYLGYYLKWHPQSCYYYSVEHGGFEASPERTPGTYSKYNSIDDKIDDFHYYTTLTKFGIGRATYDASQEIRSGDITREEGVALVKRFDQEFPERFAEEIFKYLSINLKEFPIASQMFEQPIMDRAYFMALADTFRSPHLWKKDGEQWKLRHQVTNLEKTKAEYLDLETV
notes: also called LpNASAT; NASAT
What is called stoichiometry N is a count of units in the complex or per binding partner. On to B1, for which the “stoichiometry N” value worked out at 2.
